{"source": "patent US12377186B2", "about": "“Antimicrobial biopolymer compositions, methods of synthesis, and applications of use” (ARIZONA BOARD OF REGENTS ON BEHALF OF THE UNIVERSITY OF …, priority 2018, dated 2025)", "origin": "cited, not measured here", "details": "cited from earlier work"}
{"substance": "[(VPGAG)2 (VPGYG)1 (VPGAG)2]36 [ELP (A2Y1A2)36]", "values": [{"measurement": "Tt, experimental of ELP (Tyr)", "setting": "180 ELP pentapeptide repeats, according to previous research by Ingrole et al.", "result": 25, "unit": "°C"}, {"measurement": "change in Tt when fused to a hydrophilic peptide", "setting": "relative to the smaller ELP(A2Y1A2)24", "result": "less change in Tt"}]}
